Legend:
BQ.1.1 spike protein [1] = molecular target: T1, BQ.1.1 spike protein (SARS-CoV-2 variant BQ.1.1, UniProt P0DTC2 14-1273); experiment: cell-based or functional assay
[2] = molecular target: SARS-CoV-2 B.1.351 (beta) RBD (SARS-CoV-2 B.1.351 (beta), UniProt P0DTC2 319-541); experiment: multiplex sVNT, RBD-coated beads, PE-hACE2 as competitor
[3] = molecular target: SARS-CoV-2 B.1.617.2 (delta) RBD (SARS-CoV-2 B.1.617.2 (delta), UniProt P0DTC2 319-541); experiment: as above
[4] = molecular target: SARS-CoV-2 B.1.1.529.1 (BA.1) RBD (SARS-CoV-2 B.1.1.529.1 (BA.1), UniProt P0DTC2 319-541); experiment: as above
[5] = molecular target: SARS-CoV-2 B.1.1.529.5 (BA.5) RBD (SARS-CoV-2 B.1.1.529.5 (BA.5), UniProt P0DTC2 319-541); experiment: as above
SARS-CoV-2 XBB.1 RBD = SARS-CoV-2 XBB.1 RBD (SARS-CoV-2 XBB.1, UniProt P0DTC2 319-541); experiment: as above
XBB.1 spike protein = XBB.1 spike protein (SARS-CoV-2 variant XBB.1, UniProt P0DTC2 14-1273); experiment: cell-based or functional assay
BQ.1.1 spike protein [6] = molecular target: T1, BQ.1.1 spike protein; experiment: pVNT (FIG. 1E, 1F, 2A, 3 cited); no direct binding assay described

B1: Ab52 (10x-L8N-c89) (antibody, V domains shown)
VH: QVQLVQSGSEVKKPGSSVKVSCRASGDTFSSHSLSWVRQAPGQGLEWMGRIVPMFGITNYAQNFQGRVTFTADKSTSTAYMELSSLRSEDTAVYYCARAGTMITFGGLTDDGQLNWFDPWGQGTLVTVSS
VL: DVVLTQSPLSLSVTLGQPASISCRSSQSLEYSDGDTYLNWFHQRPGQSPRRLIYKVSNRDSGVPDRFSGSGAGTDFTLKISKVEAEDVGVYYCMQGTNWPPNFGPGTKVDIK
IC50 (pVNT) (BQ.1.1 spike protein [1]): ≤ 550 ng/ml

B2: Ab42 (10x-L8N-c41) (antibody, V domains shown)
VH: EVQLLESGGGLVQPGGSLRLSCAGSGFTFSSYAMSWVRQAPGKGLEWVSSISSSGGLTFYADSVRGRSTISRDHSRNTLYLQMNSLRAEDTALYYCAREQGDSYDDYFDYWGQGTLVTVSS
VL: DIQMTQSPSSLSASVGDRVTITCRASQGIRSSLAWYQQRPGKAPKLLLSAASILESGVPSRFSGSGSGTDYTLTINGLQPDDFATYYCQQYYVTPGITFGGGTKVEIR
IC50 (pVNT) (BQ.1.1 spike protein [1]): ≤ 550 ng/ml

B3: SS6V11-E7 (antibody, V domains shown)
VH: QVQLQESGPGLVKPSETLSLTCTVSGGFIGPHYWSWVRQPPGKGLEWIGYIYISGSTNYNPSLKSRLTISVDMSKSQFSLTLSSATAADTAVYYCARGGGYLETGPFEYWGQGTLVTVSS
VL: DIVMTQSPLSLPVTPGEPASISCRSSQSLLQNNGYNYLAWYLQKPGQSPQLLIYLSSTRASGVPDRFSGSGSGTDFTLKISRVEAEDVGVYYCMQSLQIPGTFGQGTRLEIK
binding result [2]: binds | binding result [3]: binds | binding result [4]: binds | binding result [5]: binds | binding result (SARS-CoV-2 XBB.1 RBD): binds

B4: Ab51 (10x-L8N-c86) (antibody, V domains shown)
VH: EVQLVESGGGLVKPGESLRLSCAASGFTFSSSSLNWVRQAPGKGLEWVSSISISGDYTYYADSVKGRFTISRDNGKNSVYLQMDRLRVEDTAMYYCARDRFGFYDMLAHSYNVGFFQSWGQGTLVAVSS
VL: DIRMTQSPSSLSASVGDSVTITCRASQDITNYLAWFQQKPGKAPKSLIYSASILQSGVPSKFSGSGSGTDFTLTISSLQPEDFATYYCQQYLTYPITFGQGTRLEIK
IC50 (pVNT) (BQ.1.1 spike protein [1]): ≤ 550 ng/ml

B5: Ab50 (10x-L8N-c84) (antibody, V domains shown)
VH: QVQLVQSGAAVKKPGSSVKVSCEASGGTFSRFAVNWVRQAPGQGLEWMGRIIPLFAIANYPQRFQGRVIMSADRSTNITYMELSRLTSEDTAVYYCAREIDTVIDPAMDVFHGMEVWGQGTTVIVSS
VL: QSVLTQPPSASGTPGQRVTISCSGRSSNIGSNYVHWYQQLPGTAPKLLIYRNNQRPSGVPDRFSGSKSGTSASLAISGLRSEDEADYYCAGWDDSLSGAVFGGGTKLSVL
IC50 (pVNT) (BQ.1.1 spike protein [1]): ≤ 550 ng/ml

B6: Ab43 (10x-L8N-c42) (antibody, V domains shown)
VH: EVQLVESGGGLVKPGGSLRLSCAASGFTFSRHTMNWVRQAPGKGLEWVSSIGGSTPLSFYAESVKGRFSISRDNAKSSLFLQMSSLRADDTAVYYCVRDSIASVTTLFDLWGRGTVVTVSS
VL: DIQMTQSPSSLSASVGDRVTITCRASQTIRNYINWYQQRPGKAPRLLIYDASTLQSGVPSRFSGGGSGTDFTLTISSLEPEDFATYYCQQSYVSPPEDSFGQGTKLEIK
IC50 (pVNT) (BQ.1.1 spike protein [1]): ≤ 550 ng/ml

B7: Ab1 (B11.2) (antibody, V domains shown)
VH: EVQLVESGGGLVQPGGSLRLSCAASEIIVSRNYMTWVRQAPGKGLEWLAVLYAGGSSFYADSVKGRFTISRDNSKNTLFLQMNSLRAEDTAVYYCARDLSLSGGFDYWGQGALVTVSS
VL: DIQLTQSPSFLSASVGDRVTITCRASQGISNYLAWYQQNPGKAPKLLIYAVSTLHSGVPSRFSGSGSGTEFTLTISSLQPEDFATYYCQHLNTDSCTFGQGTKLEIK
IC50 (pVNT) (BQ.1.1 spike protein [1]): ≤ 300 ng/ml | concentration required to effectively neutralize (pVNT) (BQ.1.1 spike protein [1]): 16.5 ng/ml | concentration required to effectively neutralize (pVNT) (XBB.1 spike protein): 11.6 ng/ml

B8: Ab46 (10x-L8N-c63) (antibody, V domains shown)
VH: QVHLVQSGAEVKKPGSSVKVSCKASGGTFSSHTVSWVRQAPGQGLEWMGRIIPPFGIVNYAQKFQGRVTITADESTSTAYMELSSLSSEDTAVYYCARSNVVVVTEAGWFDPWGQGTLVTVSS
VL: DIQMTQSPSSVSASVGDRVTITCRASQGISSSLAWYQQKPGKAPKVLIFDASTLQSGVPSRFSGSGSGTDFTLTISNLRPEDFATYYCQQAHSFPFTFGPGTKVDIK
IC50 (pVNT) (BQ.1.1 spike protein [1]): ≤ 550 ng/ml

B9: Ab49 (10x-L8N-c73) (antibody, V domains shown)
VH: QVQLVQSGAEVKKPGSSVKVSCKASGGTFTTYAIAWVRQAPGQGLEWMGRIIPTLDNPNYAQKFQGRVSITADKSTGTSYMELRSLRSDDTAVYYCAHVSYDSSGPHLSWYFNLWGRGTLITVSS
VL: DIQMTQSPSTLSASVGDRVTITCRASQSIPSRLAWYQHKPGEAPKLLIYEASTLESGVPSRFSGSGSGTEFTLTITSLQPDDFATYFCQGWNAFGGGTKVEIK
IC50 (pVNT) (BQ.1.1 spike protein [1]): ≤ 550 ng/ml

B10: LyCov-1404 (bebtelovimab) (antibody, V domains shown)
VH: QITLKESGPTLVKPTQTLTLTCTFSGFSLSISGVGVGWLRQPPGKALEWLALIYWDDDKRYSPSLKSRLTISKDTSKNQVVLKMTNIDPVDTATYYCAHHSISTIFDHWGQGTLVTVSS
VL: QSALTQPASVSGSPGQSITISCTATSSDVGDYNYVSWYQQHPGKAPKLMIFEVSDRPSGISNRFSGSKSGNTASLTISGLQAEDEADYYCSSYTTSSAVFGGGTKLTVL
binding result (BQ.1.1 spike protein [6]): no binding

B11: Ab44 (10x-L8N-c53) (antibody, V domains shown)
VH: QVQLQQSGAEVKKPGSSVKVSCESSGGTFTSHAINWVRQAPGQRLEWMGRIIPVLGVAAYAQKFQGRVTLTADKFTSTAYMELSSLRSEDTAVYFCARSAYNYDSSGYHFDYWGQGTLVLVSS
VL: DIQMTQSPSTLSASVGDRVTITCRASQSISNWLAWYQQKPGTAPKLLIFKASTLQSGVPSRFSGSGSGTEFTLTISSLQPDDFATYHCQQYHSSRSFGQGTKVEIK
IC50 (pVNT) (BQ.1.1 spike protein [1]): ≤ 550 ng/ml

B12: Ab41 (10x-L8N-c39) (antibody, V domains shown)
VH: QVQLVQSGAEVKKPGASVKVSCKGSGYTFTDYGISWVRQAPGQGLEWMGWIRAYNGNTDYAQKFQGRVTMTRDTSTTTAYMELRSLRSDDTAVYFCALNLIAAAATPFDHWGQGTLVTVSS
VL: EIVLTQSPGTLSLSRGERATLSCRASQSVSSSYLAWYQQKRGQAPRLLIYGATSRATGIPDRFSGSGSGTDFTLTISRLEPEDFAVYYCQHYGSSPPPFGGGTKVEIR
IC50 (pVNT) (BQ.1.1 spike protein [1]): ≤ 550 ng/ml

B13: Ab2 (H12.2) (antibody, V domains shown)
VH: EFQLVESGGRLVRPGGSLRLSCVASEIIVSRNYMSWIRQAPGKGLEWVSILYAGGTTYYADSVKGRFTISRDNSKNTLYLQLNSLRVEDTAIYYCVRPIVGGRGGMDVWGQGTTVTVSS
VL: DIQMTQSPSSLSASVGDRVTITCQASQDINKYLNWYQQKPGKAPKLLIYDASNLEPGVPSRFSGSGSGTDFVFTITSLQPEDIATYYCHYYDDVPYTFGQGTQLEIK
IC50 (pVNT) (BQ.1.1 spike protein [1]): ≤ 300 ng/ml | concentration required to effectively neutralize (pVNT) (BQ.1.1 spike protein [1]): 16.6 ng/ml | concentration required to effectively neutralize (pVNT) (XBB.1 spike protein): 8.5 ng/ml | times less than the concentration of E7 (XBB.1 spike protein): ~40 times | binding result (SARS-CoV-2 XBB.1 RBD): binds

B14: Ab5 (10x-L8N-c25) (antibody, V domains shown)
VH: DFQLVESGGGLVRPGGSLRLSCVASEITVSRNYMSWIRQAPGKGLEWVSIIYPGGTTYYADSVKGRFTISRDNSKNTMYLQLNSLRPEDTAIYYCVRPIVRGGGGMDVWGQGTTVTVSS
VL: DIQMTQSPSSLSASVGDRVTITCQASQDINKYLNWYQQKPGKAPKLLIYDATNLEPGVPSRFSGSGSGTDFVFTITSLQPEDIATYYCQYYDDVPYTFGQGTQLEIK
IC50 (pVNT) (BQ.1.1 spike protein [1]): ≤ 300 ng/ml | concentration required to effectively neutralize (pVNT) (BQ.1.1 spike protein [1]): 57.5 ng/ml | times less than the concentration of E7 (BQ.1.1 spike protein [1]): ~10 times | concentration required to effectively neutralize (pVNT) (XBB.1 spike protein): 40.8 ng/ml | times less than the concentration of E7 (XBB.1 spike protein): ~8 times

B15: Ab47 (10x-L8N-c64) (antibody, V domains shown)
VH: QVQLVQSGAEVKKPGSSVKVSCEASGDTFSRYAITWVRQAPGQGLEWMGRIIPMFGSANYAQKFQGRVSFTADKSTSTASMELSSLRSEDTAVYYCATSPYYSDSGGYYCDYWGQGSLVTVSS
VL: DIQMTQSPSSLSASVGDRVTITCRASQGISNYLAWYQQKPGKAPKLLLYGASRLQSGVPSRFSGSGSGTDYTLTISSLQPEDFATFYCQQYYSAPRTFGQGTKVEIK
IC50 (pVNT) (BQ.1.1 spike protein [1]): ≤ 550 ng/ml

B16: Ab48 (10x-L8N-c72) (antibody, V domains shown)
VH: QVQLQQWGAGLLKPSETLSLTCTVYGGSISGYYWNWIRQPPGKGLEWIGEIDHSGNTNYNSSLKSRITIALDTSKKEISLKVTSVTAADTAVYYCARLDYYHYSQDAWGQGTTVTVSS
VL: EIVLTQSPDFQSVTPKERVTITCRASQSIGASLHWYQLKPNQSPKLLIKYASQSISGVPSRFSGSGSGTDFTLTISSLEAEDAATYYCLQSSNLYSFGQGTKLEIK
IC50 (pVNT) (BQ.1.1 spike protein [1]): ≤ 550 ng/ml
